This passage reports AmyQ secretion efficiency results from the supplement of paper PMC9942255.

This data set deals with Bacillus subtilis DB104 (SP-AmyQ fusion secretion). Put plainly: AmyQ secretion efficiency, weighted average sort bin (1 = best secretion, 10 = worst) (bin number (weighted average, 1-10)); higher = lower secretion efficiency. Put shortly: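 Occupied alginate beads were sorted by large-particle flow cytometry into 10 equally populated bins according to green/red fluorescence ratio. Each bead (~65 nL) held fluorescein-starch and about 0.3 cells of a B. subtilis DB104 library expressing mature AmyQ fused to designed signal peptides from the amyE locus, and beads were grown about 13 h at room temperature and stained with nile red before sorting. Bin amplicons were Illumina-sequenced, and the secretion score is the read-frequency-weighted average bin number, normalised to beads per bin, excluding low-abundance sequences.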

“And” between values parts separate entries of the source, which are not always exact repeats. Identical values can stand only once.

For MKLSVKIAGVLTVAAAAMIAIATTAKMYATAKGN, the AmyQ secretion efficiency was found to be 5.63.
The same measure for MFNRLFRVCFLAALIMAFTLPNSVYVQKP: 6.52.
The same measure for MKQIMIFLTSFMLLARRRRKKALAKDV: 7.64; for MLKKKWMVGLLAGCLAAGGFSYNWFATEN: 6.53; for MKKAKRKRRKAAVGLFTFGGVQQASAKEL: 8.05.
The same measure for MGFVSSSIIALVTILMLSVTSLFALQPSAKAAEH: 2.48; for MLSMNLWISLLFALTLIFTMAFSNMSAQAAGK: 1.93; for MKKQRKIITATTAVVLGSTLFAGAASAQSI: 1.81.
In the case of MKKCLAVTLVFGSMSFPTLTNSGGFKE, the AmyQ secretion efficiency turned out to be 4.92.
As to MKKKRLLLATSALTFSLSLVLPLDGHAKAQEV, the AmyQ secretion efficiency turned out to be 2.9.
In the case of MFNRLFRVCFLAALIMAFTLPNSKYAQKP, the AmyQ secretion efficiency came out at 6.56.
The same measure for MLTKRLLTIYIMLLGLIAWFPGAAQCEEK: 2.82; for MRSYIKVLTMCFLGLILFVPTSLADNS: 2.69; for MRFTKVVGFLSVLGLAAVFPLTAQAEED: 1.95.
Sequence MKKIMSAFVGMVLLTIFCRRRQASAAYD returned an AmyQ secretion efficiency of 7.16.
Consider MRKNRILALFVLSLGLLSFMVTPTSAASK, for which the AmyQ secretion efficiency is 2.
Take MKKQIITATTAVVGAASAQSI: the AmyQ secretion efficiency came to 7.59.
The same measure for MKKAFILSAAAAVGLFTFGGVQQASAADD: 3.55; for MKLSVKIAGVLTVAAAAMTAKMYATYKGN: 7.14; for MTKIGLLFMLCLAALFTIGFPAQQADAAEA: 3.42.
MFKKHTISLLIIFLLASAVLAKPTEAHTV registered an AmyQ secretion efficiency of 2.68.
The sequence MRKKLKWLSFLLGFIILLFLFKYQFSNNKR displayed an AmyQ secretion efficiency of 5.8.
As to MKLSVKIAGVLTVAAAAMTAKMYGTAKGN, the AmyQ secretion efficiency was determined as 5.59.
Then MKLKSKLFVICLAAAAIFTAAGVSANAEALDF, with 7.41 and 6.26; and MKRRKNVCLTALLSVLLVAGSVPFHAEAKKP, with 2.59.
In the case of MKKSQYFIVFICFFVLFSVHPIAAAFADS, the AmyQ secretion efficiency is 5.18.
Then MTKLKMLSMRSRMIASLFIFSSQALAVQY, with 3.8; and MKKIWIGMLAAAVLLLMVPKVSLRDAA, with 4.91; and MKLKSKLLLSCLALSTVFVLFSTATTIANAPTH, with 4.84.
In turn, MKRLFMKASLVLFAVVFVFAVKGADEEDEEEAKAETH returned an AmyQ secretion efficiency of 7.15.
The same measure for MFKKHTISLLIIFLLAATFFSFTSLISAVLAKPIEAHTV: 4.38; for MKKLLAAGIIGLLTVSIASPSFSAEK: 3.02; for MTKKAWFLPLVCVLLISGWLAPAASASNQTT: 2.2.
The same measure for MLCVMMLLFSAIASFPVSYQAKDQ: 6.1; for MKRFSTAYLLLGILCSAAVFLIGAPSRALGARR: 7.6; for MTKKAWFLPLVCVLLISGWLAPAASISAQTT: 2.33.
Then MTKRGIQAFAGGIILATAVLAAVFYLTDEDQAAAD, with 6.91; and MKRLLVSLRVWMVFLMNWVTRKRRKKAAAAVY, with 5.91; and MKLAKRVSALTPSTTLAITAKVKEL, with 6.33.
As for MKKRLIAPMLLSAASLAFFAKRKSAQAAAY, the AmyQ secretion efficiency turned out to be 7.88.
Then MKLAKRGKSYYPYTSLAITAKAKEL, with 8.51; and MHLIRAAGAVCLAVVLIAGCAFNEDQHQAEGENT, with 5.56; and MKRIRIPMTLALGAALTIAPLSFHSAEEN, with 7.02.
Then MLGMGWMVGLLAGCLAAGGFSYNAFATEN, with 6.54; and MFTWIYVVLVLSIAGIGGFSVHAASS, with 5.5.
Then MFNRLFRGCGGKQKIMAFTLPNSVYAQKP, with 7.39; and MTTKFTALAVFLLCFMPAAVIEHTQASLL, with 5.46.
On to MHLIRAAGAVCLAVVLIAGCRFNEDQHQLEGENT, for which the AmyQ secretion efficiency came out at 6.09.
Then MKRKLLSSLAISALSLGLLVRKRTASFAAES, with 6.75; and MKNMSCKLVVSVTLFFSFLTIGPLGHAQNS, with 2.46; and MKKRLIAPMLKRKKRRAFFAMSGSAQAAAY, with 7.88.
Then MFKKHTISLLIIFLLASAVLAKPIEAHTK, with 2.17; and MRKTIFAFLTGLMMFGTITACSASPD, with 5.81; and MKKRKRRNFKRFIAAFLVLALMISLVPADSLAKST, with 2.3.
As for MRSKKLWISLLFALTLIFTMAFSNMSAQAAGQ, the AmyQ secretion efficiency stood at 2.13.
The same measure for MKKVLMAFIICLSLILSAKAESV: 4.24; for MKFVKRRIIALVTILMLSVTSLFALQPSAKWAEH: 5.19; for MKSKGSIMACLILFSFTITTFINTETGSISAFSN: 5.66.
The same measure for MNKPTKLRRKKKRAAGMTAAAAGGAGTIHAQQP: 7.88; for MKLKSKLLLSCLALSTVFVATTIANHPTH: 4.89; for MLCVMMLLFSAIAKKRRKRAQAKDQ: 7.12.
The same measure for MKKTIMSTYGVAALSTTAFGAHASAKEI: 8.21.
As for MTMLRKIIGWILLLCIIPLFAFTVIASGASK, the AmyQ secretion efficiency was 7.69.
The same measure for MKVLLSALLLLLFAFEPSGSGKKL: 5.88.
The same measure for MKKCLLFLTTIALILSLSTNCFAKNT: 1.59; for MKLRKVLTGSVLSLGLLVSASPAFARKR: 5.66; for MKSCKQLIVCSLAAILLLRRKVSFAADS: 7.65.
Then MLKKKWMVGLLAGCLAAGGFSYNAFRTEN, with 5.68.
In turn, MRKKRMIMMVITCVMAASLTLGSLLPAGYASAKED gave an AmyQ secretion efficiency of 3.07.
Then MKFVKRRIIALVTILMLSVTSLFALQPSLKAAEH, with 2.75.
Then MRPVFPTSQKKYLFLSCFFGARQTEASASKR, with 7.29; and MRPQFPLILSAVLFLSCFFGARQTEASASKR, with 4.77; and MNVLLSALLLLLFAFEPSASGKKL, with 7.25.
Then MKLSVKIAGVLTVAAAAMTAKMYATAEEE, with 6.08.
MKKRLIAPMLLSAASLAFFAMSGSAQEAAY returned an AmyQ secretion efficiency of 6.78.
The same measure for MRSKKLWISLLFALTLIFTMAFSNMSDQAAGK: 2.84.
Then MRFTKVVGFLSVLGLAATTTFIVFPLTAQAEKA, with 1.5.
Regarding MKKQIITATTAVVLGSTLFAGADSAQSI, the AmyQ secretion efficiency was 3.56.
Then MKKRITYSLLALLAVVAFAFTDSSKAKAAEE, with 2.71; and MKKKLAAGLTASAIVGTTLVVTPIEAATI, with 2.11; and MKKRITYSLRRLLAVVAFAFTDSSKAKAAEA, with 5.28.
The same measure for MKLWMRKTLVVLFTIVTFGLVSPPAALMQDKP: 2.54.
Regarding MNKFLKSNFRFRRKRKKGISLLASSNFIKASND, the AmyQ secretion efficiency was 8.33.
Then MRPVFPLILSAVLFLSCFFGARQTEASCSKR, with 3.44.
The same measure for MKRLFMKASLVLFAVVFVFAVKGAPKAKAETH: 1.9.
The sequence MKIRKILLSSALSFGMLKDKVPALAAGT had an AmyQ secretion efficiency of 6.36.
The same measure for MRKNRILALFVLSLGLLKRKRKKVSAASK: 6.69; for MKVLLSALLLLLFAFEPSSSGKKL: 6.37; for MKKRLIGFLVLVPALIMSGITLLEANKK: 6.63.
Then MKKKQVMTLNSSLALTAAAGLGLTALHSAPAAKAAPL, with 4.06.
Turning to MLKKKWMVGLLAGCLAAGGFSYNAFCTEN, the AmyQ secretion efficiency was found to be 6.56.
The same measure for MRKKRVITCVMAASLTLGSLLSPAGYASAKED: 3.22; for MRKRKVVGFLSVLGLAAVFPLTAQAEKA: 3.02.
The same measure for MKRIRIPMTLALGAALTIAPLSFRSAEEN: 7.87; for MKRKLLSSLAISALSLGLLVSAPTATFAAES: 3.04.
Then MFKKHTISLLIIFLLASAVLAKPCEAHTV, with 2.62; and MTKKAWFLPLVCVLLISGWLAPAASSSAQTT, with 3; and “MKKKQVMLALTAAAGLGLTALHSAPASVVAVAASAKAAPL”, with 1.02.
The sequence MKIRKILLSSALSFGMLEDDDEDALAAGT showed an AmyQ secretion efficiency of 5.74.
Then MKKKLAAGLTASAVTPAEAATI, with 6.26.
MRKKLKWLSFLLGFIILLFLFKYQFSQNDS had an AmyQ secretion efficiency of 8.41.
Then MKKSQYFIVFICFFVLFSVHPIARAAADS, with 3.28; and MLTKRLLTIYIMLLGLIAWFPGALQAEEK, with 2.66.
Then MLCVMMLLFSAIAEEEDEEAQAKDQ, with 7.25; and MKMKSGMEQAVSVLLLLSRLPVQASFTSE, with 7.78; and MKRYYVRMTLPLLIVCLAFSSFSASARAASE, with 2.74.
Then MRFTKVVGFLSVLGLAAEDEEEEAQAEKA, with 7.84.
Regarding MKRFSTAYTTGGILCSAAVFLIGAPSRALGAEV, the AmyQ secretion efficiency was determined as 8.46.
